# Source: patent US20120107952A1
# Experiments:
# [1] = molecular target: Bovine-biotinamidocaproyl-labeled Albumin (biotinylated-BSA) (bovine) (UniProt P02769); experiment: MA-SPCL, 33 nM Qdots-streptavidin on biotinylated-BSA coated gold disk, emission at 217 degrees; similar after 30 min at room temperature
# [2] = molecular target: Bovine-biotinamidocaproyl-labeled Albumin (biotinylated-BSA) (bovine) (UniProt P02769); experiment: MA-SPCL, 33 nM Qdots-streptavidin on biotinylated-BSA coated gold disk, in whole blood, 655 nm, 217 degrees
# [3] = molecular target: Bovine-biotinamidocaproyl-labeled Albumin (biotinylated-BSA) (bovine) (UniProt P02769); experiment: MA-SPCL, 33 nM Qdots-streptavidin on biotinylated-BSA coated gold disk, in serum, 655 nm, 217 degrees
# Chain of UniProt P02769 (P02769 25-607 limits assumed): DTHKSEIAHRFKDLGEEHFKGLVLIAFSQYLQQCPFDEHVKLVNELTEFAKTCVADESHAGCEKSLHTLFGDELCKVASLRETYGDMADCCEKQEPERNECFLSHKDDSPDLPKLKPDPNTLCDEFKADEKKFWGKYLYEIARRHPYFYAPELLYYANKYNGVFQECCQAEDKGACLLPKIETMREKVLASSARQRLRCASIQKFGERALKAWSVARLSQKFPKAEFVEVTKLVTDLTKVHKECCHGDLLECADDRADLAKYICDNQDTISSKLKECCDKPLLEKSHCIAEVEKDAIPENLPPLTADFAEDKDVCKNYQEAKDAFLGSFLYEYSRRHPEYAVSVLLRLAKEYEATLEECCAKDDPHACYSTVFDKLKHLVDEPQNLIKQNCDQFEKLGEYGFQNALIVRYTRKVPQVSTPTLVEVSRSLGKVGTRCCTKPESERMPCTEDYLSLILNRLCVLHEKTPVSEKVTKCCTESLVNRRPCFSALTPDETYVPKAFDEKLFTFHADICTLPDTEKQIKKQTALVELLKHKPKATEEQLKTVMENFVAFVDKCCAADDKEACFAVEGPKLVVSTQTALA
substance,measurement,setting,value
Quantum dot 655-labeled streptavidin (Qdots-streptavidin) (from UniProt P22629 37-163),final luminescence intensity,[1],150 au
same,peak luminescence intensity in whole blood relative to buffer,[2],20%
same,peak luminescence intensity in serum relative to buffer,[3],75%
